Consider one substance from paper PMC3240820.

The assay deals with C-terminal His-tagged Caskin1 SAM mutant G520E (human) (UniProt Q8WXD9). The experiment in a line: SPR. (In general: SPR reads the build-up and loss of mass on a sensor chip optically.)
Chain of C-terminal His-tagged Caskin1 SAM mutant G520E (human) (Q8WXD9 470-605 G520E): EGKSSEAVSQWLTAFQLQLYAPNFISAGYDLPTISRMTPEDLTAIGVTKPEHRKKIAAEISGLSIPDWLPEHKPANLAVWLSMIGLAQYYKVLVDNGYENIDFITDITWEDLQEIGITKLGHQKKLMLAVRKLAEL

One may read the Kd as a measure of binding affinity in units of concentration. A lower Kd goes with a tighter complex. For the substance “Caskin1 SAM mutant G566K (from UniProt Q8WXD9 470-605) (domain or fragment)”, the Kd amounted to 22 µM.
